{"source": "paper PMC2441797", "target": "recombinant PARP-1 (rPARP-1) (UniProt P09874 1-1014)", "sequence (P09874 whole entry)": "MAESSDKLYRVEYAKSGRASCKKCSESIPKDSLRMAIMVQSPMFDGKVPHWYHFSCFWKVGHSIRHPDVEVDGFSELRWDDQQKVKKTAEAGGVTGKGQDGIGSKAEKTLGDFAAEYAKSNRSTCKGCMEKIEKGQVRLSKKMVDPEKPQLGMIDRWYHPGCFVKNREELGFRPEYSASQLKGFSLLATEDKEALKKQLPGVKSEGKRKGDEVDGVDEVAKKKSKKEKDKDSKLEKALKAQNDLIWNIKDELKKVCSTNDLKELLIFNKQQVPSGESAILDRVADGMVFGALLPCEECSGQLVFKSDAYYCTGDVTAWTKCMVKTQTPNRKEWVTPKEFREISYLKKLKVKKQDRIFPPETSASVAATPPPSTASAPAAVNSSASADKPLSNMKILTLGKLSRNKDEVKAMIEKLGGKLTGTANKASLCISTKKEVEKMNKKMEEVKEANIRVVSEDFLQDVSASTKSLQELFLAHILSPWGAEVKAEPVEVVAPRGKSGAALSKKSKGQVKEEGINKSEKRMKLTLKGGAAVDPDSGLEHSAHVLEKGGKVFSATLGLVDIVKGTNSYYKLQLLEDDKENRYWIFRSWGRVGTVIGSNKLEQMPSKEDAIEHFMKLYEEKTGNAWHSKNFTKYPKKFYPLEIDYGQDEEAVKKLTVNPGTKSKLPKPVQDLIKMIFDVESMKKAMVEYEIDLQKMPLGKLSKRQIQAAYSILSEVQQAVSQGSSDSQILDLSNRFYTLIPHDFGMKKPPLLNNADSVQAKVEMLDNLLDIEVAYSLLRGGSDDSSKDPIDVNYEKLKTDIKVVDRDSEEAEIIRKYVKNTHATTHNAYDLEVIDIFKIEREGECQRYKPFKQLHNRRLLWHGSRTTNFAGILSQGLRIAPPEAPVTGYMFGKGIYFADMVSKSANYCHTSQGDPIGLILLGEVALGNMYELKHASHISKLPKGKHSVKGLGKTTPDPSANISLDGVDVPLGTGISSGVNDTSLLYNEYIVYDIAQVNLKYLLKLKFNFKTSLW", "experiment": "Southwestern blot"}
{"binder": "AGGGCGGTGTGGGAAGAGGGAAGAGGGGGAGG (structured_DNA)", "note": "[32R (KRAS NHE G-quadruplex), radiolabelled]", "values": [{"measurement": "binding result", "value": "binds"}]}
